Measured values as given in paper PMC6722932 (Toxins, 2019).

Target: the molecule itself
Assay: negative-stain electron microscopy; 7 uM lysenin incubated with MLVs of SM/DOPC/cholesterol (1:2:1) for 30 min at 20 °C, with or without 10 mM DTT; fixed with 1% glutaraldehyde, stained with 2% uranyl acetate

B1: lysenin^WT (natural protein)
chain: MSAKAAEGYEQIEVDVVAVWKEGYVYENRGSTSVDQKITITKGMKNVNSETRTVTATHSIGSTISTGDAFEIGSVEVSYSHSHEESQVSMTETEVYESKVIEHTITIPPTSKFTRWQLNADVGGADIEYMYLIDEVTPIGGTQSIPQVITSRAKIIVGRQIILGKTEIRIKHAERKEYMTVVSRKSWPAATLGHSKLFKFVLYEDWGGFRIKTLNTMYSGYEYAYSSDQGGIYFDQGTDNPKQRWAINKSLPLRHGDVVTFMNKYFTRSGLCYDDGPATNVYCLDKREDKWILEVVG
notes: also called recombinant lysenin; wild-type lysenin; source: E. coli BL21(DE3), purified (Ni Sepharose 6 Fast Flow)
B1: binds.
